Source: patent US11504389

Experiments:
Assay in all cases: cell_activity
[1] = system: ZFP SBS#57890 (synthetic); settings: human iPSC neurons, 3E5 VG/cell; poor mismatch tolerance
[2] = system: ZFP SBS#52389 (synthetic); settings: AAV2/9 CMV-52389-KRAB, 3E5 VG/cell, mouse cortical neurons
[3] = system: ZFP SBS#57880 (synthetic); settings: human iPSC neurons, 3E5 VG/cell
[4] = system: ZFP SBS#52322 (synthetic); settings: mouse hippocampus in vivo, mean MAPT mRNA reduction
[5] = system: ZFP SBS#52366 (synthetic); settings: human iPSC neurons, 3E5 VG/cell

ACCCACCAGCTCCGGCAC (double strand) [57890 human MAPT site]
activity [1]: 45 % repression

CCGTTGCGCCTGATTGATGCCCAGCTCC (double strand) [52389 target]
activity [2]: 98 % repression

GCAGTCACCGCCACCCACC (double strand) [57880 human MAPT site]
activity [3]: 95 % repression

GTGGCGGAGACTGAGAGCGCGCGCGGCC (double strand) [52322 target]
activity [4]: 66 % repression

TCTGTCGACTATCAG (double strand) [52366 human MAPT site]
activity [5]: 87 % repression
